Source: the DeepSol protein solubility set

test: soluble on expression in E. coli; label from the status in PepcDB or PDB records

Row | Sequence | soluble on expression in E. coli
1 | MRGIHRLSALLVKSASQGKYCDGAGLWLNVRKDNTRSWFFRYTYHNKRREMGLGPVAQLSLKEARELAKHYSAILREGNDPIVFREQTVLKQQSNIFSEIATAAFESKKAELKNEGKNGRWFSPLELHVIPHIGSLSIEKLTANIIRNVLAPLWHEKADTARKALNRINICLKYAAALGLDVDLQACMKARALLGKPRATSTNIPAMPWQEVPAFYQSLDDKILSNLALKLLILTGVRSYPLRYLRLEQIDKDIWTIPKENMKGIVGKVSDFRVPLSHEALKMIEKSLPFEKNGFLFAGSSGKPISDVTLSKFMKDKGFDYRPHGFRSSLRDWIAETTSTPFEIAETVLAHSVGSSVTKAYMRTDFLEQRHTLMEQWAAFITGAT | not soluble
2 | MRGIVTIDGPSASGKSSVARRVAAALGVPYLSSGLLYRAAAFLALRAGVDPGDEEGLLALLEGLGVRLLAQAEGNRVLADGEDLTSFLHTPEVDRVVSAVARLPGVRAWVNRRLKEVPPPFVAEGRDMGTAVFPEAAHKFYLTASPEVRAWRRARERPQAYEEVLRDLLRRDERDKAQSAPAPDALVLDTGGMTLDEVVAWVLAHIRR | soluble
3 | MRGLKTFSILGLIVALLLVAACGNTDNSSKKESSTKDTISVKDENGTVKVPKDAKRIVVLEYSFADALAALDVKPVGIADDGKKKRIIKPVREKIGDYTSVGTRKQPNLEEISKLKPDLIIADSSRHKGINKELNKIAPTLSLKSFDGDYKQNINSFKTIAKALNKEKEGEKRLAEHDKLINKYKDEIKFDRNQKVLPAVVAKAGLLAHPNYSYVGQFLNELGFKNALSDDVTKGLSKYLKGPYLQLDTEHLADLNPERMIIMTDHAKKDSAEFKKLQEDATWKKLNAVKNNRVDIVDRDVWARSRGLISSEEMAKELVELSKKEQK | not soluble
4 | MRGLLVATWIFVSVAASATPTTTTKSPPPTTTTLSPQILKAKLPPVVKNATWECGTDEFTKSISEGEIQAKCPKLRDHINSCCLQHDGCYEAQSGQKFCDDTFCSCLERRSRSSKSCHDESAPLFCDLVRTFGDGAYEASGPNASTTEESPAEKDDYDYESHVAGLNATPSSST | not soluble
5 | MRGMLPLFEPKGRVLLVDGHHLAYRTFHALKGLTTSRGEPVQAVYGFAKSLLKALKEDGDAVIVVFDAKAPSFRHEAYGGYKAGRAPTPEDFPRQLALIKELVDLLGLARLEVPGYEADDVLASLAKKAEKEGYEVRILTADKDLYQLLSDRIHVLHPEGYLITPAWLWEKYGLRPDQWADYRALTGDESDNLPGVKGIGEKTARKLLEEWGSLEALLKNLDRLKPAIREKILAHMDDLKLSWDLAKVRTDLPLEVDFAKRREPDRERLRAFLERLEFGSLLHEFGLLESPKALEEAPWPPPEGAFVGFVLSRKEPMWADLLALAAARGGRVHRAPEPYKALRDLKEARGLLAKDLSVLALREGLGLPPGDDPMLLAYLLDPSNTTPEGVARRYGGEWTEEAGERAALSERLFANLWGRLEGEERLLWLYREVERPLSAVLAHMEATGVRLDVAYLRALSLEVAEEIARLEAEVFRLAGHPFNLNSRDQLERVLFDELGLPAIGKTEKTGKRSTSAAVLEALREAHPIVEKILQYRELTKLKSTYIDPLPDLIHPRTGRLHTRFNQTATATGRLCCCDPNLQNIPVRTPLGQRIRRGFIAEEGWLLVALDYSQIELRVLAHLSGDENLIRVFQEGRDIHTETASWMFGVPREAVDPLMRRAAKTINFGVLYGMSAHRLSQELAIPYEEAQAFIERYFQSFPKVRAWIEKTLEEGRRRGYVETLFGRRRYVPDLEARVKSVREAAERMAFNMPVQGTAADLMKLAMVKLFPRLEEMGARMLLQVHDELVLEAPKERAEAVARLAKEVMEGVYPLAVPLEVEVGIGEDWLSAKE | soluble
6 | MRGSHHHHHHGAGDRGPEFPEESSPRRTPQSIPYQDLPHLVNADGQYLFCRYWKPTGTPKALIFVSHGAGEHSGRYEELARMLMGLDLLVFAHDHVGHGQSEGERMVVSDFHVFVRDVLQHVDSMQKDYPGLPVFLLGHSMGGAIAILTAAERPGHFAGMVLISPLVLANPESATTFKVLAAKVLNLVLPNLSLGPIDSSVLSRNKTEVDIYNSDPLICRAGLKVCFGIQLLNAVSRVERALPKLTVPFLLLQGSADRLCDSKGAYLLMELAKSQDKTLKIYEGAYHVLHKELPEVTNSVFHEINMWVSQRTATAGTASPPLEVDLQGDHGLSAWSHPQFEK | soluble
7 | MRGSHHHHHHGSDPAPDAVAQQWAIFRAKYLRPSGRVVDTGNGGESHSEGQGYGMLFAASAGDLASFQSMWMWARTNLQHTNDKLFSWRFLKGHQPPVPDKNNATDGDLLIALALGRAGKRFQRPDYIQDAMAIYGDVLNLMTMKAGPYVVLMPGAVGFTKKDSVILNLSYYVMPSLLQAFDLTADPRWRQVMEDGIRLVSAGRFGQWRLPPDWLAVNRATGALSIASGWPPRFSYDAIRVPLYFYWAHMLAPNVLADFTRFWNNFGANALPGWVDLTTGARSPYNAPPGYLAVAECTGLDSAGELPTLDHAPDYYSAALTLLVYIARAEETIK | soluble
8 | MRGSHHHHHHGSGSMHQRQTLYQLMDGLNTFYQQSLQQPVATSARQYLEKRGLSHEVIARFAIGFAPPGWDNVLKRFGGNPENRQSLIDAGMLVTNDQGRSYDRFRERVMFPIRDKRGRVIGFGGRVLGNDTPKYLNSPETDIFHKGRQLYGLYEAQQDNAEPNRLLVVEGYMDVVALAQYGINYAVASLGTSTTADHIQLLFRATNNVICCYDGDRAGRDAAWRALETALPYMTDGRQLRFMFLPDGEDPDTLVRKEGKEAFEARMEQAMPLSAFLFNSLMPQVDLSTPDGRARLSTLALPLISQVPGETLRIYLRQELGNKLGILDDSQLERLMPK | soluble
9 | MRGSHHHHHHGSRSSKNVIKEFMRFKVRMEGTVNGHEFEIEGEGEGRPYEGHNTVKLKVTKGGPLPFAWDILSPQFQYGSKVYVKHPADIPDYKKLSFPEGFKWERVMNFEDGGVVTVTQDSSLQDGCFIYKVKFIGVNFPSDGPVMQKKTMGWEASTERLYPRDGVLKGEIHKALKLKDGGHYLVEFKSIYMAKKPVQLPGYYYVDSKLDITSHNEDYTIVEQYERTEGRHHLFL | soluble
10 | MRGSHHHHHHKHGQFTLRDMYEQFQNIMKMGPFSQILGMIPGFGTDFMSKGNEQESMARLKKLMTIMDSMNDQELDSTDGAKVFSKQPGRIQRVARGSGVSTRDVQELLTQYTKFAQMVKKMGGIKGLF | soluble
11 | MRGSHHHHHHTDPALRAENIMNNPVIGVVMCRNRLKGHATQTLQEKYLNAIIHAGGLPIALPHALAEPSLLEQLLPKLDGIYLPGSPSNVQPHLYGENGDEPDADPGRDLLSMAIINAALERRIPIFAICRGLQELVVATGGSLHRKLCEQPELLEHREDPELPVEQQYAPSHEVQVEEGGLLSALLPECSNFWVNSLHGQGAKVVSPRLRVEARSPDGLVEAVSVINHPFALGVQWHPEWNSSEYALSRILFEGFITACQHHIAEKQRLGLCGR | soluble
12 | MRGSHHHHHHTDPALRAMATLLQLHFAFNGPFGDAMAEQLKPLAESINQEPGFLWKVWTESEKNHEAGGIYLFTDEKSALAYLEKHTARLKNLGVEEVVAKVFDVNEPLSQINQAKLAGLCGR | soluble
13 | MRGSHHHHHHTDPALRANITPFPTLSPATIDAINVIGQWLAQDDFSGEVPYQADCVILAGNAVMPTIDAACKIARDQQIPLLISGGIGHSTTFLYSAIAQHPHYNTIRTTGRAEATILADIAHQFWHIPHEKIWIEDQSTNCGENARFSIALLNQAVERVHTAIVVQDPTMQRRTMATFRRMTGDNPDAPRWLSYPGFVPQLGNNADSVIFINQLQGLWPVERYLSLLTGELPRLRDDSDGYGPRGRDFIVHVDFPAEVIHAWQTLKHDAVLIEAMESRSLRGLCGR | soluble
14 | MRGSHHHHHHTDPALRAQDAAPRLTFTLRDEERLMMKIGVFVPIGNNGWLISTHAPQYMPTFELNKAIVQKAEHYHFDFALSMIKLRGFGGKTEFWDHNLESFTLMAGLAAVTSRIQIYATAATLTLPPAIVARMAATIDSISGGRFGVNLVTGWQKPEYEQMGIWPGDDYFSRRYDYLTEYVQVLRDLWGTGKSDFKGDFFTMNDCRVSPQPSVPMKVICAGQSDAGMAFSARYADFNFCFGKGVNTPTAFAPTAARMKQAAEQTGRDVGSYVLFMVIADETDDAARAKWEHYKAGADEEALSWLTEQSQKDTRSGTDTNVRQMADPTSAVNINMGTLVGSYASVARMLDEVASVPGAEGVLLTFDDFLSGIETFGERIQPLMQCRAHLPALTQEVAGLCGR | soluble
15 | MRIEVTIAKTSPLPAGAIDALAGELSRRIQYAFPDNEGHVSVRYAAANNLSVIGATKEDKQRISEILQETWESADDWFVSE | soluble
16 | MRILNVSLLVLASSLVAFVECGRDFYKILGVAKNANANQIKKAYRKLAKELHPDRNQDDEMANEKFQDLSSAYEVLSDKEKRAMYDRHGEEGVAKMGGGGGGGHDPFSSFFGDFFGGGGGHGGEEGTPKGADVTIDLFVTLEEVYNGHFVEIKRKKAVYKQTSGTRQCNCRHEMRTEQMGQGRFQMFQVKVCDECPNVKLVQENKVLEVEVEVGADNGHQQIFHGEGEPHIEGDPGDLKFKIRIQKHPR | not soluble
17 | MRIMASHDTPVSPAGILIDLDGTVFRGNELIEGAREAIKTLRRMGKKIVFLSNRGNISRAMCRKKLLGAGIETDVNDIVLSSSVTAAFLKKHYRFSKVWVLGEQGLVDELRLAGVQNASEPKEADWLVISLHETLTYDDLNQAFQAAAGGARIIATNKDRSFPNEDGNAIDVAGMIGAIETSAQAKTELVVGKPSWLMAEAACTAMGLSAHECMIIGDSIESDIAMGKLYGMKSALVLTGSAKQGEQRLYTPDYVLDSIKDVTKLAEEGILILEHHHHHH | not soluble
18 | MRISGVTLFRVSSQLRNVVNGQWTTTHYTVKDRSTDPRWKDVDLARESDVYDVVIVGGGPSGLSAAIRLRQLAEKAQKELRVCVVEKASVIGGHTLSGAVIETRALDELIPNWKELGAPVYQQVTSESIAILTESGRIPVPVLPGVPLANHGNYIVRLGKVVQWLGEQAEAAGVEVWPEIAASEVLYNEDGSVKGIATSDVGIGKDGAPKDGFARGMEFHAKCTIFAEGCRGHLSKQVLDKFDLRTHAMTYGIGLKELWEIDPAKHRPGYVEHTMGWPLNVDQYGGSFLYHIEDQGQPLVSVGFVVALDYANPNLNPYKEFQKYKTHPSISKQLEGGKRIGYGARALNEGGFQSIPKLHFPGGCLVGCSAGFLNVAKLKGTHNAMKSGMVAAESIFEDIQQKGEDVQTIDPATYDKNIRDTYVVKELKATRNIRPSFNTSLGYIGGLIYSGIFYVFGRGIEPWTLGHGKKDNEKLIPVKDAKEIDYPKPDGKLTFDLLTSVSLTGTNHTEDQPAHLTLKNDQVPLDVNLAVYGGPEARFCPAGVYEFVPSEADESKKRLQINAQNCIHCKTCDIKDPQQNINWVTPEGGGGPKYEGM | not soluble
19 | MRISTLQGQYQCIIIDPPWFYRLRSKDKTHRNRIPYQPMRTPEILALPIPDLCDAGGCVLWLWFTNNHMIEAAQCLQRWGFDLKTILTWGKVTKDGTKTHLGVGHWLRNSTEHCALAVRGNVKAFAGQTSTTGGTPTLTNQSTILHSPRREHSRKPPEFFELVEKLCPDMTKLEIFARESRDGWDCWGDQADLFDASDEEILVKAEKVLLLEHHHHHH | not soluble
20 | MRKAHIMGIEGVGMSALARLLMAEGVAVTGCDLAPGPRARRLGVPVHHGHDPGHLADEDTLVVPTPVPPDHPEVVEARKRGLRVLRRMELLAHFLAQRPSAGVTGTHGKTTTTGMLAAILLEAGLDPWVFLGGELALLPGNARPGRGPRVAEVDESDPLFREVRVSVAVATNLEADHVAPRGERAPNYHESLEALKEAMRGFLAGAKTVVVPAMDPGLLALTEGLPRRLFGPGGEVWAEAVDLSPSGASFRLVHREGPLGEVHLRVPGRHNVHNALAAALAALALGASPEAISRGLSRFPGVGRRFERVGEVGGAWVVDDYAHHPTEVQATLEAALLSGRRVRVFFQPHRLLRTQELWEAFAQALKGAHEVVVLPVYTAGERGRESPEALSDRIAKRLEDLGRPARRMDKEEALAYARATARPEDLLLFMGAGDVTLLARRLVHEG | soluble
